Test [1] addresses Insulin. Description: BLI. (BLI is a label-free optical method that tracks binding on a fibre tip over time.)
The target of test [2] is Insulin. Kind of test: BLI. This is another data set of the same source.

Like-named read-outs stand apart in the source and are kept apart here.

B1: Recombinant mouse secretagogin (SCGN) (natural protein)
chain: MDNARRKTPARLDAACFWQIWQRFDKEEKGYIRETELDAFFDHLLAKSGTEDTLMEENVQKVKEQLMTSHNVSKEGRILMKELASMFLSEDENFLLFFRLETPLDNSVEFMQIWRKYDADSSGFISAAELCNFLRDLFLHHKKNISEAELEEYTSTMMKIFDKNKDGRLDLNDLARILALQENFLLQFKMDASSTEERKRDFEKIFAHYDVSKTGALEGPEVDGFVKDMMELVQPSISGVDLDKFREILLRHCDVNKDGKIQKSELALCLGLKINP
One may read the Kd as the free concentration of one partner at which half of the binding sites on the other are occupied at equilibrium, for simple one-to-one binding. The term koff denotes a measure of how fast the partners let go of each other. High values mean a short-lived complex, low ones a long-lived complex. What is called kon is the second-order rate constant of association. A low value points to slower complex formation. Consider B1, for which, in the test with Insulin [1], the Kd was determined as 1400 nM and the koff was 0.0006 s⁻¹. In the test with Insulin [2], this molecule showed a Kd of 1800 nM, a koff of 0.001 s⁻¹ and a kon of 720 M⁻¹ s⁻¹.

For the origin of these results see publication PMC6864339.
